The target in data set [1] is T1, SLBP (histone stem-loop binding protein) (UniProt Q14493 1-270). Kind of data set: RIP pull-down with recombinant SLBP; with T-1* trigger; EMSA: 1x NT2 buffer, 1 mM DTT, RNaseOUT, 50 uL, room temperature 1 h, 1.25 ug SLBP (~37 pmol), native 8% PAGE in 1x TB; RIP: RNAs in 10 mM Tris/100 mM NaCl; pH. To be noted: label: none, trans three-way junction, bait:trigger 1:1, not a blunt duplex.

For data set [2], the target named is T1, SLBP (histone stem-loop binding protein). Kind of data set: EMSA; without trigger; EMSA: 1x NT2 buffer, 1 mM DTT, RNaseOUT, 50 uL, room temperature 1 h, 1.25 ug SLBP (~37 pmol), native 8% PAGE in 1x TB; RIP: RNAs in 10 mM Tris/100 mM NaCl; pH. To be noted: protein: recombinant; label: none; alternative fold without HSL. A general note: A gel shift assay detects complexes by their altered migration in electrophoresis.

For data set [3] the target is unchanged. The data set can be described thus: EMSA; with T-1 trigger; EMSA: 1x NT2 buffer, 1 mM DTT, RNaseOUT, 50 uL, room temperature 1 h, 1.25 ug SLBP (~37 pmol), native 8% PAGE in 1x TB; RIP: RNAs in 10 mM Tris/100 mM NaCl; pH. As to conditions: protein: recombinant; label: none; trans three-way junction, bait:trigger 1:1, not a blunt duplex.

B1: B-1a + T-1* (trans-3WJ) (mixed)
RNA 1: GGGCAAACACCAUUGUCAAAAGGCUCUUUUCAGAGCCACACUCCA
RNA 2: UGGAGUGUGACAAUGGUGUUUG
modifications: 2'-OMe on trigger (strand 2)
As to B1, the binding result in data set [1] is listed as “binds”.

B2: B-1b (structured_RNA)
RNA: GGGAAGAGAGCCCAAACACCAUUGUCAAAAGGCUCUUUUCAGAGCUACACUCCAGAGCU
modifications: none
In the case of B2, in data set [2], the binding result is on record as “no binding”.

B3: B-1b + T-1 (trans-3WJ) (structured_RNA)
RNA 1: GGGAAGAGAGCCCAAACACCAUUGUCAAAAGGCUCUUUUCAGAGCUACACUCCAGAGCU
RNA 2: UGGAGUGUGACAAUGGUGUUUG
modifications: none
In the case of B3, the binding result in data set [3] is “binds”.

Source of the values: publication PMC5368982, “Engineering Structurally Interacting RNA (sxRNA)”.
